Our source for the Kd values is the Immune Epitope Database (IEDB).

Among the targets are HLA-A*03:01; HLA-A*11:01; HLA-A*68:01; HLA-A*31:01; HLA-A*33:01.
Holding throughout (experiment): IEDB peptide-MHC binding, purified MHC/competitive/radioactivity; filed as Kd, often an IC50 or EC50 that approximates it; ≥ and ≤ were set here for values at or beyond the usual limits of such assays
[1] abbreviates: source organism: Vaccinia virus WR.
[2] abbreviates: source organism: SARS coronavirus Tor2.
The mark [3] stands for this setting: source organism: Vaccinia virus Copenhagen.
[4] abbreviates: source organism: Mammarenavirus brazilense.
Where [5] appears, read: source organism: Mammarenavirus machupoense.
Setting [6] is: source organism: Dengue virus 4 Philippines/H241/1956.
The mark [7] stands for this setting: source organism: Dengue virus 1 Nauru/West Pac/1974.
Setting [8] is: source organism: Dengue virus 2 Jamaica/1409/1983.
Setting [9] is: source organism: Dengue virus 1 Brazil/97-11/1997.

For orientation: Kd means a measure of binding affinity in units of concentration. KSCICYGSY: the dissociation constant Kd with HLA-A*03:01 (setting [1]) is 0.437 µM; in the test with HLA-A*11:01 (setting [1]), 0.00688 µM; in the test with HLA-A*68:01 (setting [1]) it was not below 29.7 µM; with HLA-A*31:01 (setting [1]) it was 0.418 µM; with HLA-A*33:01 (setting [1]) it was 0.364 µM.

Turning to KLSAGVEFLK, the Kd was 0.0149 µM with HLA-A*03:01 (setting [2]); 0.0279 µM with HLA-A*11:01 (setting [2]); 0.101 µM with HLA-A*68:01 (setting [2]); 0.516 µM with HLA-A*31:01 (setting [2]); 6.1 µM in the test with HLA-A*33:01 (setting [2]).

As for LVTRKCPQK, the Kd in the test with HLA-A*03:01 (setting [1]) is 0.063 µM; with HLA-A*11:01 (setting [1]), 0.0173 µM; in the test with HLA-A*68:01 (setting [1]), 0.0193 µM; in the test with HLA-A*31:01 (setting [1]), 1.32 µM; with HLA-A*33:01 (setting [1]) it was 5.11 µM.

On to LLNVTYNIK, for which the Kd with HLA-A*03:01 (setting [3]) was 7.7 µM; with HLA-A*11:01 (setting [3]), 4.83 µM; in the test with HLA-A*68:01 (setting [3]), 11.3 µM; with HLA-A*31:01 (setting [3]), not below 77.9 µM; with HLA-A*33:01 (setting [3]) it was not below 77.7 µM.

As to LSCIRNASK, the Kd in the test with HLA-A*03:01 (setting [1]) amounted to 0.484 µM; in the test with HLA-A*11:01 (setting [1]) it was 0.5 µM; with HLA-A*68:01 (setting [1]), 0.276 µM; with HLA-A*31:01 (setting [1]), 0.3 µM; in the test with HLA-A*33:01 (setting [1]), 0.784 µM.

For the sequence YIAVANCVR, the Kd with HLA-A*03:01 (setting [1]) was not below 78 µM; with HLA-A*11:01 (setting [1]), 13.9 µM; in the test with HLA-A*68:01 (setting [1]) it was 0.00673 µM; in the test with HLA-A*31:01 (setting [1]), 0.0142 µM; in the test with HLA-A*33:01 (setting [1]) it was 0.284 µM.

In the case of YLSDSDNIK, the dissociation constant (Kd) with HLA-A*03:01 (setting [1]) was 2.6 µM; with HLA-A*11:01 (setting [1]), 8.57 µM; with HLA-A*68:01 (setting [1]), 1.12 µM; with HLA-A*31:01 (setting [1]), not below 77.9 µM; with HLA-A*33:01 (setting [1]), not below 50.7 µM.

On to GSFQEFRSNH, for which the Kd with HLA-A*03:01 (setting [4]) was not below 28.7 µM; with HLA-A*11:01 (setting [4]), 7.13 µM; in the test with HLA-A*68:01 (setting [4]) it was not below 70.1 µM; in the test with HLA-A*31:01 (setting [4]), 1.52 µM; with HLA-A*33:01 (setting [4]) it was not below 45.2 µM.

For the sequence NSTCYVFGLY, the Kd with HLA-A*03:01 (setting [1]) came out at 0.161 µM; in the test with HLA-A*11:01 (setting [1]), 0.0195 µM; with HLA-A*68:01 (setting [1]) it was 0.00895 µM; in the test with HLA-A*31:01 (setting [1]), 3.24 µM; with HLA-A*33:01 (setting [1]), 9 µM.

In the case of MVNHSTYYVH, the Kd stood at 10.1 µM with HLA-A*03:01 (setting [4]); 6.28 µM with HLA-A*11:01 (setting [4]); 0.391 µM with HLA-A*68:01 (setting [4]); 0.544 µM in the test with HLA-A*31:01 (setting [4]); 3.02 µM in the test with HLA-A*33:01 (setting [4]).

LNNSFYYMR: the Kd is not below 78 µM with HLA-A*03:01 (setting [5]); 5.88 µM with HLA-A*11:01 (setting [5]); 0.0153 µM with HLA-A*68:01 (setting [5]); 0.00464 µM with HLA-A*31:01 (setting [5]); not below 21.7 µM with HLA-A*33:01 (setting [5]).

With SISNITTATR, the Kd in the test with HLA-A*68:01 (setting [6]) came to 0.0136 µM; in the test with HLA-A*31:01 (setting [6]) it was 0.626 µM; in the test with HLA-A*33:01 (setting [6]), 0.0106 µM.

Consider IFLRKLTSR, for which the Kd in the test with HLA-A*31:01 (setting [6]) came to 0.039 µM; in the test with HLA-A*33:01 (setting [6]) it was 0.108 µM.

Regarding TIANSNIIK, the Kd turned out to be 0.655 µM with HLA-A*03:01 (setting [1]); 0.0368 µM in the test with HLA-A*11:01 (setting [1]); 0.0731 µM in the test with HLA-A*68:01 (setting [1]); 8.98 µM in the test with HLA-A*31:01 (setting [1]); 10.9 µM with HLA-A*33:01 (setting [1]).

With KAIKILTGFR, in the test with HLA-A*31:01 (setting [6]), the Kd was found to be 0.00775 µM.

In the case of RSSPPIPMSR, the Kd is 0.00873 µM with HLA-A*03:01 (setting [1]); 0.00149 µM with HLA-A*11:01 (setting [1]); 0.245 µM with HLA-A*68:01 (setting [1]); 0.00112 µM with HLA-A*31:01 (setting [1]); 1.6 µM in the test with HLA-A*33:01 (setting [1]).

With RVSTVSQLAK, the Kd in the test with HLA-A*03:01 (setting [7]) is 0.00604 µM; in the test with HLA-A*11:01 (setting [7]) it was 0.0403 µM.

With YSMCTGKFK, in the test with HLA-A*11:01 (setting [8]), the Kd worked out at 0.55 µM.

For NTKSDIDVIK, the Kd with HLA-A*03:01 (setting [1]) stood at 8.26 µM; with HLA-A*11:01 (setting [1]) it was 0.0684 µM; with HLA-A*68:01 (setting [1]), 0.000547 µM; with HLA-A*31:01 (setting [1]), 4.03 µM; with HLA-A*33:01 (setting [1]), 0.97 µM.

Turning to ENMEVEIWTR, the Kd with HLA-A*33:01 (setting [6]) came to 0.106 µM.

As to ISQFSYKELY, the Kd with HLA-A*03:01 (setting [1]) is 5.72 µM; with HLA-A*11:01 (setting [1]), 1.25 µM; with HLA-A*68:01 (setting [1]) it was 7.76 µM; in the test with HLA-A*31:01 (setting [1]), 9.58 µM; with HLA-A*33:01 (setting [1]) it was not below 46.8 µM.

In the case of PIGMQFDKVY, the Kd was not below 70.1 µM in the test with HLA-A*03:01 (setting [1]); 1.23 µM in the test with HLA-A*11:01 (setting [1]); 13 µM in the test with HLA-A*68:01 (setting [1]); not below 70 µM with HLA-A*31:01 (setting [1]); not below 70 µM in the test with HLA-A*33:01 (setting [1]).

As for KLKPRWLDAR, in the test with HLA-A*31:01 (setting [8]), the Kd worked out at 0.00139 µM.

Turning to ISELSRLRY, the Kd was 6.57 µM with HLA-A*03:01 (setting [1]); 10.8 µM with HLA-A*11:01 (setting [1]); not below 22.7 µM with HLA-A*68:01 (setting [1]); 5.37 µM with HLA-A*31:01 (setting [1]); not below 77.7 µM in the test with HLA-A*33:01 (setting [1]).

In the case of CTLPPLRFR, the equilibrium dissociation constant (Kd) with HLA-A*31:01 (setting [9]) is not below 77.9 µM; in the test with HLA-A*33:01 (setting [9]) it was 0.00413 µM.

Take DMQKFTILEY: the Kd is not below 53.5 µM with HLA-A*03:01 (setting [1]); 3.53 µM in the test with HLA-A*11:01 (setting [1]); not below 24.5 µM in the test with HLA-A*68:01 (setting [1]); not below 70 µM in the test with HLA-A*31:01 (setting [1]); not below 70 µM in the test with HLA-A*33:01 (setting [1]).

Consider MISRMLINR, for which the Kd in the test with HLA-A*11:01 (setting [8]) was 0.258 µM; with HLA-A*68:01 (setting [8]) it was 0.0227 µM; with HLA-A*31:01 (setting [8]) it was 0.00437 µM; with HLA-A*33:01 (setting [8]), 0.0097 µM.

For the sequence LAILFEEVMR, the Kd with HLA-A*68:01 (source organism: Dengue virus 3 Martinique/1243/1999) came out at 0.0297 µM.
